B1: L66 (antibody, V domains shown)
VH: EVQLVESGGGVVRPGGSLRLSCAASGFTFDDYGMSWVRQAPGKGLEWVSGINWNGGSTGYADSVKGRFTISRDNAKNSLYLQMNSLRAEDTALYYCARDRVTMVRGVIMDYYGMDVWGQGTTVTVSS
VL: QTVVTQEPSLTVSPRGTVTLTCSSSTGAVTSGYYPGWFQLKPGQAPMSLIYSARKKHSWTPARFSGSLLGGKAALTLSGVQPEDEAEYYCLLYYGGAYVFGTGTKVTVLG
B2: C40G1 (antibody, V domains shown)
VH: QLQLQESGPGLVKPSETLSLTCTVSGGSISSSFYYCGWIRQPPGKGLEWIGSIYYRGSTYYNPSLKSRVTISVDTSKNQFSLKLSSVTAADTAVYYCARRVTMVRGVKGDYFDYWGQGTLVTVSS
VL: DIQMTQSPSSLSASVGDRVTITCRASQGISSWLAWYQQKPEKVPKSLIYAASSLQSGVPSRFSGSGSGTDFTLTISSLQPEDFATYYCQQYNYYPLTFGGGTKVEIKR

Columns and labels:
[1] = target: M2 expressed on A/HK/8/68 infected MDCK cells (influenza A virus A/HK/8/68); assay: cell-based ELISA, infected MDCK cells
CM12 (influenza A virus) = assay: ELISA, peptide coated, antibody 10 µg/ml
CM13 (influenza A virus) = assay: ELISA, peptide coated, antibody 10 µg/ml
CM14 (influenza A virus) = assay: ELISA, peptide coated, antibody 10 µg/ml
CM15 (influenza A virus) = assay: ELISA, peptide coated, antibody 10 µg/ml
CM16 (influenza A virus) = assay: ELISA, peptide coated, antibody 10 µg/ml
CM17 (influenza A virus) = assay: ELISA, peptide coated, antibody 10 µg/ml
[2] = target: M2 peptide (extracellular 23-amino-acid M2 peptide) (influenza A virus); assay: ELISA, peptide coated, antibody 10 µg/ml
NM11 (influenza A virus) = assay: ELISA, peptide coated, antibody 10 µg/ml
NM12 (influenza A virus) = assay: ELISA, peptide coated, antibody 10 µg/ml
NM13 (influenza A virus) = assay: ELISA, peptide coated, antibody 10 µg/ml
NM16 (influenza A virus) = assay: ELISA, peptide coated, antibody 10 µg/ml
NM17 (influenza A virus) = assay: ELISA, peptide coated, antibody 10 µg/ml
M12 (influenza A virus) = assay: ELISA, peptide coated, antibody 10 µg/ml
NM14 (influenza A virus) = assay: ELISA, peptide coated, antibody 10 µg/ml

Binder | EC50 [1] [µg/mL] | ELISA (OD450) (CM12 (influenza A virus)) | ELISA (OD450) (CM13 (influenza A virus)) | ELISA (OD450) (CM14 (influenza A virus)) | ELISA (OD450) (CM15 (influenza A virus)) | ELISA (OD450) (CM16 (influenza A virus)) | ELISA (OD450) (CM17 (influenza A virus)) | ELISA (OD450) [2] [OD450] | ELISA (OD450) (NM11 (influenza A virus)) | ELISA (OD450) (NM12 (influenza A virus)) | ELISA (OD450) (NM13 (influenza A virus)) | ELISA (OD450) (NM16 (influenza A virus)) | ELISA (OD450) (NM17 (influenza A virus)) | ELISA (OD450) (M12 (influenza A virus)) | ELISA (OD450) (NM14 (influenza A virus))
B1 | 0.229 | 0.08 | 0.08 | 0.08 | 0.09 | 0.09 | 0.12 | 0.51 | 0.09 | 0.12 | 0.13 | 1.04 | 0.99 | – | –
B2 | – | 0.1 | 0.11 | 0.1 | 0.11 | 0.76 | 2.78 | – | – | 0.12 | 2.41 | – | – | 2.71 | 2.49

Reference: patent publication US20050170334A1
